Blank lines part the entries; values can stand above or below the molecule they belong to.
How the values were obtained:
[1] = target: mouse endothelial protein C receptor (mEPCR), full-length, on CHO-K1 cells (mouse) (UniProt Q64695); test: saturation binding on CHO-K1 cells with mEPCR, 10 to 1000 nM ligand; bound material eluted and quantified by western blot; binding to CHO-K1 cells without mEPCR subtracted; fit of bound against ligand concentration
[2] = target: soluble mouse EPCR (mouse) (UniProt Q64695); test: isothermal titration calorimetry, soluble murine EPCR
Human FVIIa (NovoSeven) = target: T1, Human FVIIa (NovoSeven) (human, UniProt P08709 61-466); test: CHO-K1 cells expressing human EPCR, western blot of bound fraction
T1 construct: mature
T1 sequence (looked up): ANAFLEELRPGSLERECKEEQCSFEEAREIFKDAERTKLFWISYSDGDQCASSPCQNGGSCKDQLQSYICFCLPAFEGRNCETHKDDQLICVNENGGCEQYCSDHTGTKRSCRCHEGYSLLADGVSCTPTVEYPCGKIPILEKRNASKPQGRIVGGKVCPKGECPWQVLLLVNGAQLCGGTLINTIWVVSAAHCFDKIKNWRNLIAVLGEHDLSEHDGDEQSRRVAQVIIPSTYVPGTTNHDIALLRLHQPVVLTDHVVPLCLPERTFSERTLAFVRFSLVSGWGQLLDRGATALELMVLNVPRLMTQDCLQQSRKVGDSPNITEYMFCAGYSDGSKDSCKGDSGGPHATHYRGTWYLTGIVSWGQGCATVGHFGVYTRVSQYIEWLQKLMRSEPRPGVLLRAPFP
Protocol: (§1) FIG. 2A: Scheme for determining and quantifying binding of proteins to surface exposed mouse EPCR (mEPCR). The protein whose mEPCR binding is under investigation is added onto CHO-K1 cells expressing mEPCR (mEPCR+ve) or not (mEPCR−ve). Binding is done in the presence of physiological concentration of calcium and magnesium (1.6 mM and 0.6 mM, respectively). Following washing, the bound material is eluted with EDTA (10 mM). The bound, unbound and a portion of total loaded material are then subjected to polyacrylamide gel electrophoresis, transferred to nitrocellulose and detected by western blotting using protein-specific antibodies. FIG. 2B: Human plasma-derived protein C (hPC) or murine PC (mPC) that are known ligands for murine EPCR, were incubated with CHO-KI cells with or without murine EPCR expression. […] A variant mFVIIa bearing part of the mPC Gla domain ([1-11 mPC)-mFVIIa) restored binding of this chimeric molecule to murine EPCR.
(§2) FIG. 12. Binding of variants of human activated FVII with amino acid changes at position 8 (normally a Leucine). Conditioned medium from transient transfection was added on CHO-K1 cells expressing human EPCR, as described in FIG. 2. […] Following the wash of unbound material, the bound fraction was visualized by western blotting (shown in the bottom image). […] Human FVIIa (NovoSeven) is shown as a control for positive binding. […]

[3] = target: T2, wildtype human FVIIa (Leu at position 8), PACE/furin construct (human, UniProt P08709 61-466); test: conditioned medium on CHO-K1 cells expressing human EPCR, western blot of bound fraction
T2 construct: mature; Tested as conditioned medium from transiently transfected HEK-293 cells
T2 sequence (looked up): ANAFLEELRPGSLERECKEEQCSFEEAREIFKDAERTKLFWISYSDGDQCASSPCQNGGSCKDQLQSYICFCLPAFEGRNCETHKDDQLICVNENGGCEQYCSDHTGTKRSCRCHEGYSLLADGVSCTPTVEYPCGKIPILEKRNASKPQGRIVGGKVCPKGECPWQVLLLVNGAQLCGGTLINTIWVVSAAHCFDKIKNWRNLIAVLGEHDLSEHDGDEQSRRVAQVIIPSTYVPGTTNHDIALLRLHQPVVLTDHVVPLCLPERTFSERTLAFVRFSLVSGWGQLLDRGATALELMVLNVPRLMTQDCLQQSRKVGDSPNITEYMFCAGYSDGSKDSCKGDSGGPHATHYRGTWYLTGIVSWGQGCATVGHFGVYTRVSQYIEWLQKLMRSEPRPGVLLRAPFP
Protocol: as §1, §2

[4] = target: human plasma-derived protein C (hPC) (human, UniProt P04070 43-461); test: CHO-K1 cells with or without murine EPCR, EDTA elution, western blot
Protocol: as §1

mPC F4L = target: T3, mPC F4L (mouse, UniProt P33587 42-460); test: HEK-293 supernatant on CHO-K1 cells with or without mEPCR, western blot
T3 construct: Tested as HEK-293 supernatant after transient expression; Position 4 is counted on the mature polypeptide; also called mouse PC Phe4 to Leu
T3 sequence (looked up): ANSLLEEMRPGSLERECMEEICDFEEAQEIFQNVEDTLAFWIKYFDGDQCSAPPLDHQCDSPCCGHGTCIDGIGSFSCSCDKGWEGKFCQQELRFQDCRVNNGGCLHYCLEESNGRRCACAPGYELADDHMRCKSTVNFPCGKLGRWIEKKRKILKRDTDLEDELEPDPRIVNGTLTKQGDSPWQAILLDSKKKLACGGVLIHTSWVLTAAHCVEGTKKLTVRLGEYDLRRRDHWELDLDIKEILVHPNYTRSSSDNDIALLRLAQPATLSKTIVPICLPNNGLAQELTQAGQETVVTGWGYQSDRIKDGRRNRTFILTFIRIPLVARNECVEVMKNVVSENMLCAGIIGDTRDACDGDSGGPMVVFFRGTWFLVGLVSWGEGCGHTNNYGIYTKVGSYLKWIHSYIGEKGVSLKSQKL
Protocol: as §1, with “The” for “FIG. 2A: Scheme for determining and quantifying binding of proteins to surface exposed mouse EPCR (mEPCR). The”
(§3) FIG. 4A: The Gla domain of the (1-11 mPC)-mFVIIa is shown. The blue box represents the first 11 amino acids of the mouse PC (mPC) Gla domain, whereas the red box represents the portion of the Gla domain of mouse FVIIa. […] Individual mutations were performed to change one amino acid in mFVIIa with the corresponding in (1-11 mPC)-mFVIIa. Following transient expression in HEK-293 cells, supernatant with each protein was incubated with CHO-K1 cells with or without expression of the mouse EPCR receptor. […] From top to bottom, sequences are SEQ ID NOs: 1-5. […]

mouse FVIIa (mFVIIa) = target: T4, mouse FVIIa (mFVIIa) (mouse, UniProt P70375 42-446); test: saturation binding on CHO-K1 cells with mEPCR, 10 to 1000 nM ligand; bound material eluted and quantified by western blot; binding to CHO-K1 cells without mEPCR subtracted; fit of bound against ligand concentration
T4 construct: mature; Recombinant; Has a Gla domain; also called mF7a
T4 sequence (looked up): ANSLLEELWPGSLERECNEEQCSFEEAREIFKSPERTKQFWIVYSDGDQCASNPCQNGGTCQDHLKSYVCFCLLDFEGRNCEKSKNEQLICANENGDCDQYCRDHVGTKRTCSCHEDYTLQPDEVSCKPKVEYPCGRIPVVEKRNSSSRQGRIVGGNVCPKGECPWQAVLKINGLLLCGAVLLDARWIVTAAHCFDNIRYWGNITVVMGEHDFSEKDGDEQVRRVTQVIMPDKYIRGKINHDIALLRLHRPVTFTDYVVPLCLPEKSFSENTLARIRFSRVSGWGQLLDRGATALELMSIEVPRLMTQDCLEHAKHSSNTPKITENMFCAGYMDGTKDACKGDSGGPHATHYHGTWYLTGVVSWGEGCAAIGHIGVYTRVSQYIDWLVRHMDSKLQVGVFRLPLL
Protocol: as §1
FIG. 7. Increasing concentration of ligand (mFVIIa or [1-11 mPC]-mFVIIa) was incubated with CHO-K1 cells without mEPCR (−mEPCR) or with mEPCR (+mEPCR). The experimental strategy described in Example I was followed and bound material was visualized. Following subtraction of non-specific binding (material incubated on CHO-K1[-]mEPCR cells), corrected amount of bound material (nM per 10⁶ cells) was plotted vs. concentration of ligand (nM). […]

murine protein C (mPC) = target: T5, murine protein C (mPC) (mouse, UniProt P33587 42-460); test: HEK-293 supernatant on CHO-K1 cells with or without mouse EPCR, western blot of the bound fraction
T5 construct: also called mouse PC; mouse protein C
T5 sequence (looked up): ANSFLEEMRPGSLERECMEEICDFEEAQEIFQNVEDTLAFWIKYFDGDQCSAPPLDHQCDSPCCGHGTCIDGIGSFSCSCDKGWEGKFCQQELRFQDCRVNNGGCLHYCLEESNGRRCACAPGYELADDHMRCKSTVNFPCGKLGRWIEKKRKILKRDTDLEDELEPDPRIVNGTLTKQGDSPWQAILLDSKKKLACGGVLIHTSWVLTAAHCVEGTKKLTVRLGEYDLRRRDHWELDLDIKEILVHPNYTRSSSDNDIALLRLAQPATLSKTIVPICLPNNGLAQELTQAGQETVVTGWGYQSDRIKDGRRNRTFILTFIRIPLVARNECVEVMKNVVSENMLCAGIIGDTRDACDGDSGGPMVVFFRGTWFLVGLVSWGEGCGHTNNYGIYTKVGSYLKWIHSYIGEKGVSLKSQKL
Protocol: as §1, with “The” for “FIG. 2A: Scheme for determining and quantifying binding of proteins to surface exposed mouse EPCR (mEPCR). The”
as §3

Sequence of human plasma-derived protein C (hPC) (P04070 43-461): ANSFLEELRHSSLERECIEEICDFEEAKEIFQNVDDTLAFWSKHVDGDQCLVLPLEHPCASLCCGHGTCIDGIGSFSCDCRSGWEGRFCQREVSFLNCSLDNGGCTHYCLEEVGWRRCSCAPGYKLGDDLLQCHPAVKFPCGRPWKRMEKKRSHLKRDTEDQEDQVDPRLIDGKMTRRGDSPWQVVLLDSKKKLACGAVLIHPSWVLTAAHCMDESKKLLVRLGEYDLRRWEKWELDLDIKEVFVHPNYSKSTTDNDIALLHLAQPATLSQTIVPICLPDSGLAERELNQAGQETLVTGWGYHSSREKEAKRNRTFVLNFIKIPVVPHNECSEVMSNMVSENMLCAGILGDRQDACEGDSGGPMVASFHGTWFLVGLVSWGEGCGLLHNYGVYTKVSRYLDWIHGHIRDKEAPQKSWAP

Kd [1]: 340 nM
Kd [2]: 480 nM
Molecule: (1-11 mPC)-mFVIIa (from UniProt P70375 42-446) (enzyme)

binding result (Human FVIIa (NovoSeven)): binds
binding result [3]: binds
B1: human EPCR on CHO-K1 cells (receptor, UniProt Q9UNN8 18-238, looked up)
chain: SQDASDGLQRLHMLQISYFRDPYHVWYQGNASLGGHLTHVLEGPDTNTTIIQLQPLQEPESWARTQSGLQSYLLQFHGLVRLVHQERTLAFPLTIRCFLGCELPPEGSRAHVFFEVAVNGSSFVSFRPERALWQADTQVTSGVVTFTLQQLNAYNRTRYELREFLEDTCVQYVQKHISAENTKGSQTSRSYTSLVLGVLVGSFIIAGVAVGIFLCTGGRRC
notes: whole, on cells; also called hEPCR

binding result [4]: binds
binding result (mPC F4L): no binding
Kd (mouse FVIIa (mFVIIa)): 10600 nM
binding result (murine protein C (mPC)): binds
B2: mouse endothelial protein C receptor (mEPCR), full-length, on CHO-K1 cells (receptor, UniProt Q64695 18-242, looked up)
chain: LCNSDGSQSLHMLQISYFQDNHHVRHQGNASLGKLLTHTLEGPSQNVTILQLQPWQDPESWERTESGLQIYLTQFESLVKLVYRERKENVFFPLTVSCSLGCELPEEEEEGSEPHVFFDVAVNGSAFVSFRPKTAVWVSGSQEPSKAANFTLKQLNAYNRTRYELQEFLQDTCVEFLENHITTQNMKGSQTGRSYTSLVLGILMGCFIIAGVAVGIFMCTSGRRC
notes: whole, on cells; also called murine EPCR; mouse EPCR
